One molecule from patent US20130046081A1 (SHANGHAI BIOMABS PHARMACEUTICALS, published 2013) can be followed below.

By Kd is commonly meant the equilibrium constant for the complex coming apart. By koff is commonly meant a measure of how fast the partners let go of each other. One may read the kon as a measure of how fast the partners come together.

This test concerns the target T1, Recombinant Human VEGF165 Protein (human, UniProt P15692-4 27-191).
T1 construct: Bought protein (R&D)
In words: SPR (Biacore T100), VEGF165 amine-coupled to the chip, antibody in solution. As for the experimental part:
Affinity constant of VEGF antibody was detected using Biacore T100 system (Biacore AB, Uppsala, Sweden). VEGF165 (R&D) was covalently linked to CMS biological sensor chips (Biacore) by amino-coupling. […] After each examination, they were washed with 5 μl of 50 mM hydrochloric acid aqueous solution at a flow rate of 3 μl/min so as to wash away the residual antibodies from the immobilized ligands. The binding curves were subjected to nonlinear regression analysis using BIAevalution software (T100 evalution version 2.0, Biacore).
(In general: SPR reads the build-up and loss of mass on a sensor chip optically.)

T1 sequence (P15692 other isoform, or with tags, fused parts or gaps limits assumed): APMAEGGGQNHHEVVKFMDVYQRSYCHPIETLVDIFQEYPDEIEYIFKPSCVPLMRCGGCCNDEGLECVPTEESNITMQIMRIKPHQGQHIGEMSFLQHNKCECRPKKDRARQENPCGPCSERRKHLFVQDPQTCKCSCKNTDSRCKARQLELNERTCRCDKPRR

B1: fully human anti-VEGF antibody 11A7 (antibody, human IgG1, kappa, V domains shown)
VH: QVQLVQSGAEVKKPGASVKVSCKASGYTFTSYDINWVRQATGQGLEWMGWMNPNSGNTGYAQKFQGRVTMTRNTSISTAYMELSSLRSEDTAVYYCARGGYSSSWYYWYFDLWGRGTLVTVSS
VL: DIQMTQSPSSLSASVGDRVTITCRASQGIRNDLGWYQQKPGKAPKRLIYAASSLQSGVPSRFSGSGSGTEFTLTISSLQPEDFATYYCLQHNSYPPVYTFGQGTKLEIKR
notes: The genes carried a signal peptide at the 5' end; also called fully human antibody 11A7
On to B1, for which the Kd was 860 pM, the koff turned out to be 7.1e-05 s⁻¹ and the kon was 82400 M⁻¹ s⁻¹.
